Data on two molecules can be found in paper PMC8453022, “A New Subfamily of Glycoside Hydrolase Family 30 with Strict Xylobiohydrolase Function” (Frontiers in Molecular Biosciences, 2021).

One series has as its target T1, AcXbh30A-CD (Acetivibrio clariflavus, UniProt G8LU16).
T1 construct: gene Clocl_1795; GH30 catalytic domain only, secretion leader and C-terminal type I dockerin removed, C-terminal His-tag, pET28 expression, ca. 50 kDa, apparent monomer
T1 sequence (G8LU16 29-455 limits assumed): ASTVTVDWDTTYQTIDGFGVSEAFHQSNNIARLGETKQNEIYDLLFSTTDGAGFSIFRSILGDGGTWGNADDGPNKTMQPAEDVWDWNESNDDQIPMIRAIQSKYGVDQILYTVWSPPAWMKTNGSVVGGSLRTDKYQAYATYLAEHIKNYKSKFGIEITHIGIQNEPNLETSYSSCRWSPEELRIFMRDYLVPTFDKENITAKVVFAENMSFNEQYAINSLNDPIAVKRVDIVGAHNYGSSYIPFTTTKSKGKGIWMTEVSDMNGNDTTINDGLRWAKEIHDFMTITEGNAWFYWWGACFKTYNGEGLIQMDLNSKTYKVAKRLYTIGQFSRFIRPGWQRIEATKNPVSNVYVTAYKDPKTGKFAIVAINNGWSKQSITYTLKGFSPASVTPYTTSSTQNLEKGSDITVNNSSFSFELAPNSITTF
The series can be described thus: pNP-X2 hydrolysis, non-linear competitive inhibition fit. To be noted: competitive product inhibition; substrate pNP-X2; 30 mM sodium acetate pH 4.0, 0.02 mg/ml BSA, 65 C; read-out: AcXbh30A pNP-X2 kinetic values^a ^, ^b / 116.4 ± 3.23 μM. The series is classed as biochemical. From the text:
pNP-X2 hydrolysis, non-linear competitive inhibition fit on AcXbh30A-CD

Substrate in the series “purified protein”: O=[N+]([O-])c1ccc(O[C@@H]2OC[C@@H](O[C@@H]3OC[C@@H](O)[C@H](O)[C@H]3O)[C@H](O)[C@H]2O)cc1
Briefly: purified protein. To be noted: 30 mM sodium acetate pH 4.0, 0.02 mg/ml BSA, 65 C, 10 min. The series is classed as biochemical, Acetivibrio clariflavus.

`OC1OC[C@@H](O[C@@H]2OC[C@@H](O)[C@H](O)[C@H]2O)[C@H](O)[C@H]1O` (some centres unmarked) [X2]: the Ki on AcXbh30A-CD amounted to 2.4 mM.

B1: AcXbh30A-CD (Acetivibrio clariflavus DSM 19732) (protein)
chain: ASTVTVDWDTTYQTIDGFGVSEAFHQSNNIARLGETKQNEIYDLLFSTTDGAGFSIFRSILGDGGTWGNADDGPNKTMQPAEDVWDWNESNDDQIPMIRAIQSKYGVDQILYTVWSPPAWMKTNGSVVGGSLRTDKYQAYATYLAEHIKNYKSKFGIEITHIGIQNEPNLETSYSSCRWSPEELRIFMRDYLVPTFDKENITAKVVFAENMSFNEQYAINSLNDPIAVKRVDIVGAHNYGSSYIPFTTTKSKGKGIWMTEVSDMNGNDTTINDGLRWAKEIHDFMTITEGNAWFYWWGACFKTYNGEGLIQMDLNSKTYKVAKRLYTIGQFSRFIRPGWQRIEATKNPVSNVYVTAYKDPKTGKFAIVAINNGWSKQSITYTLKGFSPASVTPYTTSSTQNLEKGSDITVNNSSFSFELAPNSITTF
notes: GH30 catalytic domain only, secretion leader and C-terminal type I dockerin removed, C-terminal His-tag, pET28 expression, ca. 50 kDa, apparent monomer
Turning to B1, in the series “purified protein”, the Km was determined as 116.4 ± 3.23 µM, the Vmax stood at 183.1 ± 1.13 U mg^−1, the kcat is 152.7 s⁻¹ and the kcat/Km was 1,311.6 s^−1 mM^−1.
